{
  "source": "patent US9969998B2",
  "about": "“Compositions of adenosine deaminase-2 (ADA2), variants thereof and methods of using same” (Halozyme, Inc., priority 2014, dated 2018)",
  "key": {"[1]": {"test_system": "MH194+PSC4 pancreatic tumor", "test": "Tumor growth inhibition and survival, MH194+PSC4 syngeneic tumor model", "type": "in vivo, C57BL/6 mice", "settings": "for Tumor Growth Inhibition: vs vehicle; for Increase in MST: vs vehicle (MST 27 days)", "method": "The murine MH194+PSC4 syngeneic tumor model was used to assess the antitumor efficacy of PEGylated a recombinant adenosine deaminase 2 (ADA2), PEGylated rHuADA2-R222Q/S265N (PEG-R222Q/S265N; PEG-R219Q/S262N by mature numbering).\nThe PSC4 cells are isolated and immortalized pancreatic stellate cells. To generate the PSC4 cells, pancreas from C57BL/6 mice were minced with razor blades and placed in 2 mL of a digestion buffer containing 0.05% collagenase P, 0.1% DNAse, and 0.02% Pronase in Gey's balanced salt solution (GBSS). Following two 15 min digestion incubations at 37° C. with thorough mixing after each incubation, the resulting cell suspension was filtered through a 100 μm nylon mesh, washed twice in GBSS with 0.3% bovine serum albumin (BSA), and resuspended in 10 mL GBSS/BSA. Eight mL of Histodenz (Sigma, Cat. No. D2158) was added to the cell suspension, and the entire volume was pipetted under 6 mL GBSS/BSA in order to generate a discontinuous density gradient. Following centrifugation for 20 min at 1,400 g with the brake set at zero, the desired cells were harvested from the interface between the two density volumes and washed once with PBS and once with DMEM medium supplemented with 2 mM L-glutamine, 10% fetal bovine serum, and 1% amphotericin-B (complete DMEM). Cells were immortalized using Lenti-SV40 (Capital Biosciences, Cat. No. CIP-0011) using manufacturer's protocol. The resulting cell line, designated PSC4, were maintained in tissue culture as an adherent monolayer in complete DMEM at 37° C. and 5% CO2. The MH194 mouse pancreatic carcinoma cells are derived from the KrasLSL.G12D/+p53R172H/+PdxCretg/+ genetically engineered mouse model. […]\nThirty-nine (39) male C57BL/6 mice were co-inoculated subcutaneously with 5×10^6 of a mixture of murine MH194 pancreatic cancer tumor cells and murine PSC4 pancreatic stellate cells in 0.1 mL injection volume per animal. Tumor volume was determined using digital calipers via measurement of length (L) and width (W) of the solid tumor masses. Tumor volume (TV) was calculated as: (L×W^2)/2. Tumors were allowed to grow and tumor bearing mice were staged for test article administration when the tumors were palpable and measured to be approximately 50-100 mm^3.\nPEG-R222Q/S265N was prepared using similar methods as described in Example 8.A, with minor modifications to generate a preparation in which approximately 100% of the molecules were PEGylated as assessed by SDS-PAGE.\nFor treatment, MH194+PSC4 tumor bearing mice were randomized into five treatment groups (n=≤8); vehicle control (buffer only) or PEG-R222Q/S265N at four treatment doses. MH194+PSC4 tumor bearing mice were then injected intravenously (IV) every other day, at 0.003 mg/kg body weight, 0.03 mg/kg body weight, 0.3 mg/kg body weight and 3 mg/kg body weight of PEG-R222Q/S265N, or vehicle. […] Median survival time (MST) (in days) was calculated as the time at which 50% of the mice of the individual groups reached one of the following endpoints: (1) tumor volume reaches 2000 mm^3, (2) the animal loses >25% of its body weight, or (3) the animal appears moribund."}, "[2]": {"test": "In vivo pharmacokinetics of PEGylated rHuADA2 combination variants (Example 14)", "settings": "3 mg/kg intravenous", "from_the_text": "(§1) Twenty-seven (27) male BALB/c mice were divided into three (3) dosing groups, and were further divided into three (3) groups each for sampling of blood at different time points. Thus, the mice were randomized into nine (9) groups total. Mice were weighed prior to the start of the study, and randomized into the 9 groups based upon their body weights. In each sampling group, three groups of (3) mice were used for dosing each test article to prevent oversampling of the blood from the animals. For measurement of baseline ADA2 levels, a blood sample was obtained from 12 randomly chosen mice and plasma was prepared using the anti-coagulant potassium (K3) ethylene diamine tetraacetic acid (K3-EDTA). All blood was collected by submandibular venipuncture.\n(§2) PEGylated ADA2 variants were prepared using the PEGylation method as described in Example 8.A, with minor modifications. Briefly, all ADA2 variants at 10 mg/mL were PEGylated with linear PEG-20K (JenKem Technology, Plano, Tex.; Cat. No. M-SCM-20K) at 1:15 molar ratio and incubated first at 37° for 30 min, then at 4° C. for 16 hours.\n(§3) Approximately 200 μL of whole blood was collected at designated sampling time points from appropriate groups of mice as indicated below in Table 38 and kept on ice until plasma preparation. The initial two (2) blood samples were collected by submandibular venipuncture. The final sample was collected from a terminal bleed. Plasma was prepared by centrifuging the blood (500×g for 5 min at 4° C.), transferring the plasma to a fresh tube and immediately freezing at −80° C. until the adenosine deaminase activity assay. Adenosine deaminase activity was determined as described in Example 4.\n(§4) Non-compartmental analysis (NCA) was conducted using the Phoenix WinNonlin version 6.3 (Pharsight Corp, St. Louis, Mo. 63101). The half-life, or time taken for the activity of ADA2 proteins to be reduced by half, was calculated. Also, total exposure was measured by calculating the Area Under the Concentration-time Curve (AUC). The AUC and half-life values were obtained from the unweighted average from each test article group. The following options in the Phoenix WinNonlin program were used for data analysis: (i) linear trapezoidal/linear interpolation option for AUC; (ii) best-fit slope selection option for terminal slope; and (iii) uniform weighting of the data."}, "[3]": {"settings": "mouse, in vivo, iv, 3 mg/kg", "from_the_text": "as §1, §2, §3, §4"}, "[4]": {"test": "Heparin binding ELISA (immobilized heparin)", "settings": "Example 8", "method": "Heparin binding of a protein, such as any ADA2 provided herein, can also be assessed using enzyme-linked immunosorbant assay (ELISA) based methods. ELISA-based methods use heparin immobilized on a surface, such as a microtiter plate. The protein of interest which binds to heparin, such as any ADA2 provided herein, is incubated in the heparin coated plate, and binding is detected using antibodies that detect the protein of interest, such as any ADA2 provided herein.\nFor example, a 96-well plate coated with 100 μL of 200 μg/mL heparin sodium salt (Calibochem, EMD Milipore, Billerica, Mass.; Cat. No. 375095) in Na2CO3 buffer (pH 9.6) can be used to test ADA2 binding to heparin. […] The optical density (OD) of each reaction is measured on a plate reader.\nIn another example, heparin is immobilized by incubating Streptavidin-coated microtiter plates, such as the Streptavidin-coated 96-well plate (Thermo Fisher Scientific, Rockford, Ill.; Cat. No. 15520), with biotinylated heparin, such as biotin-heparin (Sigma-Aldrich, St. Louis, Mo.; Cat No. B9806-10MG). […] The optical density (OD) of each reaction is measured on a plate reader. […]"}, "[5]": {"settings": "0.003 mg/kg IV every other day, day 11"}, "[6]": {"settings": "0.03 mg/kg IV every other day, day 11"}, "[7]": {"settings": "0.3 mg/kg IV every other day, day 11"}, "[8]": {"settings": "3 mg/kg IV every other day, day 11"}, "[9]": {"settings": "day 11, 0.003 mg/kg IV every other day"}, "[10]": {"settings": "male BALB/c mice, WT from Example 9"}},
  "data": [
    {"molecule": "PEG-R222Q/S265N: rHuADA2-R222Q/S265N (SEQ ID NO:273) PEGylated with linear PEG-20K (conjugate, linear PEG-20K; human ADA2 R219Q/S262N, mature numbering) IDETRAHLLLKEKMMRLGGRLVLNTKEELANERLMTLKIAEMKEAMRTLIFPPSMHFFQAKHLIERSQVFNILRMMPKGAALHLHDIGIVTMDWLVRNVTYRPHCHICFTPRGIMQFRFAHPTPRPSEKCSKWILLEDYRKRVQNVTEFDDSLLRNFTLVTQHPEVIYTNQNVVWSKFETIFFTISGLIHYAPVFRDYVFRSMQEFYEDNVLYMEIRAQLLPVYELSGEHHDEEWSVKTYQEVAQKFVETHPEFIGIKIIYNDHRSKDVAVIAESIRMAMGLRIKFPTVVAGFDLVGHEDTGHSLHDYKEALMIPAKDGVKLPYFFHAGETDWQGTSIDRNILDALMLNTTRIGHGFALSKHPAVRTYSWKKDIPIEVCPISNQVLKLVSDLRNHPVATLMATGHPMVISSDDPAMFGAKGLSYDFYEVFMGIGGMKADLRTLKQLAMNSIKYSTLLESEKNTFMEIWKKRWDKFIADVATK", "values": [
      {"measurement": "MST (median survival time)", "setting": "[1]; 0.003 mg/kg IV every other day", "result": 46, "unit": "days"},
      {"measurement": "Average Tumor Volume", "setting": "[1]; [5]", "result": 323.9, "unit": "mm^3"},
      {"measurement": "Tumor Growth Inhibition", "setting": "[1]; [5]", "result": 72, "unit": "%"},
      {"measurement": "Increase in MST", "setting": "[1]; 0.003 mg/kg IV every other day", "result": 70, "unit": "%"},
      {"measurement": "median survival time (MST)", "setting": "[1]; 0.003 mg/kg dose", "result": 46, "unit": "days"},
      {"measurement": "mice that survived beyond 41 days", "setting": "[1]; 0.003 mg/kg dose", "result": "Five out of eight"},
      {"measurement": "MST (median survival time)", "setting": "[1]; 0.03 mg/kg IV every other day", "result": 26, "unit": "days"},
      {"measurement": "Average Tumor Volume", "setting": "[1]; [6]", "result": 680.45, "unit": "mm^3"},
      {"measurement": "Tumor Growth Inhibition", "setting": "[1]; [6]", "result": 21, "unit": "%"},
      {"measurement": "Increase in MST", "setting": "[1]; 0.03 mg/kg IV every other day", "result": 0, "unit": "%"},
      {"measurement": "MST (median survival time)", "setting": "[1]; 0.3 mg/kg IV every other day", "result": 32.5, "unit": "days"},
      {"measurement": "Survival time", "setting": "[1]; 0.3 mg/kg IV every other day", "result": "13 to 41", "unit": "days"},
      {"measurement": "Average Tumor Volume", "setting": "[1]; [7]", "result": 700.59, "unit": "mm^3"},
      {"measurement": "Tumor Growth Inhibition", "setting": "[1]; [7]", "result": 20, "unit": "%"},
      {"measurement": "Increase in MST", "setting": "[1]; 0.3 mg/kg IV every other day", "result": 20, "unit": "%"},
      {"measurement": "MST (median survival time)", "setting": "[1]; 3 mg/kg IV every other day", "result": 23.5, "unit": "days"},
      {"measurement": "Average Tumor Volume", "setting": "[1]; [8]", "result": 678.58, "unit": "mm^3"},
      {"measurement": "Tumor Growth Inhibition", "setting": "[1]; [8]", "result": 22, "unit": "%"},
      {"measurement": "Increase in MST", "setting": "[1]; 3 mg/kg IV every other day", "result": 0, "unit": "%"},
      {"measurement": "Average Tumor Volume", "setting": "[1]; [9]", "result": "approximately 324 mm^3"},
      {"measurement": "tumor growth inhibition (TGI)", "setting": "[1]; [9]", "result": "approximately 72%"},
      {"measurement": "AUC (total exposure)", "setting": "[2]; BALB/c mice, plasma ADA activity", "result": "16,330 (U * h)/mL"},
      {"measurement": "Percent increase in AUC compared to WT ADA2", "setting": "[2]; BALB/c mice, vs non-PEGylated WT rHuADA2 of Example 9", "result": "49,661%"},
      {"measurement": "AUC higher than the non-PEGylated WT rHuADA2", "setting": "[2]; [10]", "result": 49661, "unit": "%"},
      {"measurement": "half-life longer than the non-PEGylated WT rHuADA2", "setting": "[2]; [10]", "result": 4043, "unit": "%"},
      {"measurement": "Half-life slow (t1/2)", "setting": "[3]", "result": "2,790 min"},
      {"measurement": "Percent increase in t1/2 compared to WT ADA2", "setting": "[3]", "result": "4,043%"}
    ]},
    {"molecule": "PEGylated ADA2: ADA2 conjugate that is a PEGylated ADA2 (conjugate, UniProt Q9NZK5 30-511, looked up, PEG) Adenosine deaminase 2: IDETRAHLLLKEKMMRLGGRLVLNTKEELANERLMTLKIAEMKEAMRTLIFPPSMHFFQAKHLIERSQVFNILRMMPKGAALHLHDIGIVTMDWLVRNVTYRPHCHICFTPRGIMQFRFAHPTPRPSEKCSKWILLEDYRKRVQNVTEFDDSLLRNFTLVTQHPEVIYTNQNVVWSKFETIFFTISGLIHYAPVFRDYVFRSMQEFYEDNVLYMEIRARLLPVYELSGEHHDEEWSVKTYQEVAQKFVETHPEFIGIKIIYSDHRSKDVAVIAESIRMAMGLRIKFPTVVAGFDLVGHEDTGHSLHDYKEALMIPAKDGVKLPYFFHAGETDWQGTSIDRNILDALMLNTTRIGHGFALSKHPAVRTYSWKKDIPIEVCPISNQVLKLVSDLRNHPVATLMATGHPMVISSDDPAMFGAKGLSYDFYEVFMGIGGMKADLRTLKQLAMNSIKYSTLLESEKNTFMEIWKKRWDKFIADVATK", "values": [
      {"measurement": "heparin binding compared to the corresponding non-PEGylated ADA2", "setting": "[4]", "result": "reduced heparin binding"}
    ]}
  ]
}
